Experimental data taken from paper doi:10.1101/2024.09.06.611628 (bioRxiv, 2024).

Target: T1, CATCH(-) peptide
T1 peptide: Ac-EQEFEFEFEQE-NH2
Test: gelation on mixing

B1: CATCH(+) peptide (peptide)
peptide: Ac-QQKFKFKFKQQ-NH2
**Q.** Does B1 bind?
**A.** Result: binds
